Results: article PMC5573156 (Developmental cell, 2017)
Where two headings read alike, the source gives them in different places.

Key:
[1] = biological target: microtubules polymerized from bovine brain tubulin (bovine) (UniProt Q6B856); assay: single-molecule TIRF motility assay
[2] = biological target: bovine brain tubulin, unpolymerized (soluble αβ-tubulin dimer) (bovine) (UniProt Q6B856)
[3] = biological target: Kip3_(438)-L11^KHC (S. cerevisiae) (UniProt P53086); assay: BLI
[4] = biological target: Kip3_(448) (S. cerevisiae) (UniProt P53086); assay: BLI
[5] = biological target: Kip3_(438) (S. cerevisiae) (UniProt P53086); assay: BLI
[6] = biological target: microtubules polymerized from bovine brain tubulin (bovine) (UniProt Q6B856); assay: single-molecule TIRF motility assay; remark: listed apart in the source
[7] = biological target: microtubules polymerized from bovine brain tubulin (bovine) (UniProt Q6B856); assay: single-molecule TIRF motility assay; remark: listed apart in the source
[8] = biological target: GTPγS-stabilized Tub1^D118A yeast microtubules (S. cerevisiae, UniProt P09733 1-447; P02557 1-457, D118A); assay: TIRF fluorescence intensity on immobilised microtubules
GTPγS-stabilized Tub1^D118A yeast microtubules, sequence (P09733 whole entry D118A, chain 1 of 2): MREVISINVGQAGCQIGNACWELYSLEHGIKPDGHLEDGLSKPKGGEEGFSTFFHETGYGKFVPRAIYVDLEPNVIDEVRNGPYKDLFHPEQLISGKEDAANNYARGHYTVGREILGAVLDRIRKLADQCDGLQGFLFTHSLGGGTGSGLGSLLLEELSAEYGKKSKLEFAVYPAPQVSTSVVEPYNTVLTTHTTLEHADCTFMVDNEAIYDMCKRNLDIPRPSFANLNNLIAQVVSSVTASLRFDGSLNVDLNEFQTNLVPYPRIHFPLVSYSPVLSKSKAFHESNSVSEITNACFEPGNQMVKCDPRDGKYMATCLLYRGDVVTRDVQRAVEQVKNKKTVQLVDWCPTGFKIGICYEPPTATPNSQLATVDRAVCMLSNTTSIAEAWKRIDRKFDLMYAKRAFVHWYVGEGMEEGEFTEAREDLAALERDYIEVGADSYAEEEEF
GTPγS-stabilized Tub1^D118A yeast microtubules, sequence (P02557 whole entry, stated change not applied, chain 2 of 2): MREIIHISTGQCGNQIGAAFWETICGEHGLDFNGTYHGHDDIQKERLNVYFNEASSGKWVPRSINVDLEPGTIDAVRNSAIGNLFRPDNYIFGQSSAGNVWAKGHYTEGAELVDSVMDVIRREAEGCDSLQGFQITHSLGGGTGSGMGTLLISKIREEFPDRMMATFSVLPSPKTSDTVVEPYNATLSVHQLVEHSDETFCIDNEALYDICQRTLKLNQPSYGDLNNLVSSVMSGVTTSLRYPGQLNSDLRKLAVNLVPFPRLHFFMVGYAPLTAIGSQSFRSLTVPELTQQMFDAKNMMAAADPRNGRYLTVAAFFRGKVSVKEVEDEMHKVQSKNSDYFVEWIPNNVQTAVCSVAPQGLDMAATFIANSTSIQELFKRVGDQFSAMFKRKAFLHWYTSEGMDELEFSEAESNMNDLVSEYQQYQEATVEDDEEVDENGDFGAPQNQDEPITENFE

microtubules polymerized from bovine brain tubulin (bovine), sequence (Q6B856 whole entry, looked up): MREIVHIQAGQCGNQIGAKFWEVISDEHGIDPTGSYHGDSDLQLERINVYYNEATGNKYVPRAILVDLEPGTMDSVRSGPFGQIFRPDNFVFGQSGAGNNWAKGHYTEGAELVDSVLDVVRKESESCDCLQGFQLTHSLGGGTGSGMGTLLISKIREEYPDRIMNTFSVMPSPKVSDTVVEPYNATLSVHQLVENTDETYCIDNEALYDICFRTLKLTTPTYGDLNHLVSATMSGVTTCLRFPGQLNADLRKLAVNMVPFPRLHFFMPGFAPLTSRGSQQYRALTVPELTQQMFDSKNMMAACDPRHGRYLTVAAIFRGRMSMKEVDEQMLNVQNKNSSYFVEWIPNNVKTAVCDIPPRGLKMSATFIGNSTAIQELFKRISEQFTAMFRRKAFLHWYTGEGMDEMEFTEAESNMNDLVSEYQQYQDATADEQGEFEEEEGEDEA

In the case of “Kip3FL-L2^KHC (from UniProt P53086 1-805)”, the plus-end dwell time [1] is reported as 9.3 s.

Work on “KHC560 with Kip3 Loop11 and Loop2 (from UniProt P33176 1-560)” yielded a plus-end residence time [1] of 52.1 s.

Work on “KHC560-L11^Kip3 (from UniProt P33176 1-560)” yielded a steady-state ATPase: decrease of the KM for tubulin against kinesin-1 [2] of 9.4 fold.

In the case of “bovine brain tubulin, unpolymerized (soluble αβ-tubulin dimer) (from UniProt Q6B856 1-445) (complex)”, the fold change in tubulin binding affinity, Kip3 438 over Kip3 438-L11KHC [3] is reported as 7 fold, the residence time (koff^-1) with ADP [4] is reported as 35.7 s and the lifetime of the complex [5] is reported as 48 s.

B1: Kip3FL (full-length Kip3, budding yeast kinesin-8) (natural protein, S. cerevisiae, UniProt P53086 1-805, looked up)
chain: MNVPETRQSSIVVAIRVRPFTSMEKTRLVNEASGAEANFPGLGDSSLILPMSNNSDSDIDIDAEEGSTRSKRNSLLRRKVIRPEGIRKIVDCVDDRMLIFDPADRNPLNKVSDQVLNSMRARATKATASSINNSNATNKFSSQRRRHGGEIKFVFDKLFDETSSQARVYKETTSPLLDSVLDGFNSTVFAYGATGCGKTYTVSGTPSQPGIIFLAMEELFNKITDLKDEKDFEISLSYLEIYNERIRDLLKPETPSKRLVIREDTQNHIKVANLSYHHPNTVEDVMDLVVQGNINRTTSPTEANEVSSRSHAVLQIHIMQTNKLVDLTSQHTFATLSIIDLAGSERAAATRNRGIRLHEGANINRSLLALGNCINALCLNDGSRSCHIPYRDSKLTRLLKFSLGGNCKTVMIVCISPSSSHYDETLNTLKYANRAKEIKTKIIRNQQSLSRHVGSYLKMITEQKRQIEELREREEKMISLKLTKYKLNKEKIQLAINECVNRVQQTYAGVETYQVAKTLKSLILCKRRFLQMVKLEVDNLILLFEREESTAAEMQPVISNCRMISGQLYNKIHELEMKFDETDTLSSVIHQVHSIDLNKLREMEDWDETYDLVYLESCLNQISELQRNEILVNSSIMTEKLMSDPGLNSRFKFLSKWLMNRTPNIESIIQDLVHIDEEFESFARTFIANPDSNFTNTNINIINTTAADLAVPAETLQRQNFSQKKVKWTSPDLSPSPMIEPQPELEPELHQDQDAIASEVDVSMQDTTFNEQGPSTPSAPTTAVPRRKMRSSLLTHQSLLATARK
modifications: TMR (HALO-TMR) on the HALO tag where labelled
B1 was tested, and the plus-end dwell time [6] was 38.2 s, the plus-end dwell time [7] was 52.9 s and the binding result [8] was “binds”.
